According to article PMC2187331:
Where two headings read alike, the source gives them in different places.

Experiments:
Test in all cases: rosette formation
[1] = target: C receptor type 1, the C3b receptor (human (endogenous in erythrocytes, monocytes and neutrophils)) (UniProt P17927)
[2] = target: C receptor type 2, the C3d receptor (human (endogenous in Raji)) (UniProt P20023)
[3] = target: C receptor type 1, the C3b receptor (human (endogenous in erythrocytes, monocytes and neutrophils)) (UniProt P17927); remark: listed apart in the source
[4] = target: C receptor type 1, the C3b receptor (human (endogenous in erythrocytes, monocytes and neutrophils)) (UniProt P17927); remark: listed apart in the source
[5] = target: C receptor type 1, the C3b receptor (human (endogenous in erythrocytes, monocytes and neutrophils)) (UniProt P17927); remark: listed apart in the source
[6] = target: C receptor type 3, iC3b receptor (human (endogenous in monocytes and neutrophils)) (UniProt P11215)
[7] = target: C receptor type 3, iC3b receptor (human (endogenous in monocytes and neutrophils)) (UniProt P11215); remark: listed apart in the source

Sequence of C receptor type 1, the C3b receptor (human (endogenous in erythrocytes, monocytes and neutrophils)) (P17927 42-2039): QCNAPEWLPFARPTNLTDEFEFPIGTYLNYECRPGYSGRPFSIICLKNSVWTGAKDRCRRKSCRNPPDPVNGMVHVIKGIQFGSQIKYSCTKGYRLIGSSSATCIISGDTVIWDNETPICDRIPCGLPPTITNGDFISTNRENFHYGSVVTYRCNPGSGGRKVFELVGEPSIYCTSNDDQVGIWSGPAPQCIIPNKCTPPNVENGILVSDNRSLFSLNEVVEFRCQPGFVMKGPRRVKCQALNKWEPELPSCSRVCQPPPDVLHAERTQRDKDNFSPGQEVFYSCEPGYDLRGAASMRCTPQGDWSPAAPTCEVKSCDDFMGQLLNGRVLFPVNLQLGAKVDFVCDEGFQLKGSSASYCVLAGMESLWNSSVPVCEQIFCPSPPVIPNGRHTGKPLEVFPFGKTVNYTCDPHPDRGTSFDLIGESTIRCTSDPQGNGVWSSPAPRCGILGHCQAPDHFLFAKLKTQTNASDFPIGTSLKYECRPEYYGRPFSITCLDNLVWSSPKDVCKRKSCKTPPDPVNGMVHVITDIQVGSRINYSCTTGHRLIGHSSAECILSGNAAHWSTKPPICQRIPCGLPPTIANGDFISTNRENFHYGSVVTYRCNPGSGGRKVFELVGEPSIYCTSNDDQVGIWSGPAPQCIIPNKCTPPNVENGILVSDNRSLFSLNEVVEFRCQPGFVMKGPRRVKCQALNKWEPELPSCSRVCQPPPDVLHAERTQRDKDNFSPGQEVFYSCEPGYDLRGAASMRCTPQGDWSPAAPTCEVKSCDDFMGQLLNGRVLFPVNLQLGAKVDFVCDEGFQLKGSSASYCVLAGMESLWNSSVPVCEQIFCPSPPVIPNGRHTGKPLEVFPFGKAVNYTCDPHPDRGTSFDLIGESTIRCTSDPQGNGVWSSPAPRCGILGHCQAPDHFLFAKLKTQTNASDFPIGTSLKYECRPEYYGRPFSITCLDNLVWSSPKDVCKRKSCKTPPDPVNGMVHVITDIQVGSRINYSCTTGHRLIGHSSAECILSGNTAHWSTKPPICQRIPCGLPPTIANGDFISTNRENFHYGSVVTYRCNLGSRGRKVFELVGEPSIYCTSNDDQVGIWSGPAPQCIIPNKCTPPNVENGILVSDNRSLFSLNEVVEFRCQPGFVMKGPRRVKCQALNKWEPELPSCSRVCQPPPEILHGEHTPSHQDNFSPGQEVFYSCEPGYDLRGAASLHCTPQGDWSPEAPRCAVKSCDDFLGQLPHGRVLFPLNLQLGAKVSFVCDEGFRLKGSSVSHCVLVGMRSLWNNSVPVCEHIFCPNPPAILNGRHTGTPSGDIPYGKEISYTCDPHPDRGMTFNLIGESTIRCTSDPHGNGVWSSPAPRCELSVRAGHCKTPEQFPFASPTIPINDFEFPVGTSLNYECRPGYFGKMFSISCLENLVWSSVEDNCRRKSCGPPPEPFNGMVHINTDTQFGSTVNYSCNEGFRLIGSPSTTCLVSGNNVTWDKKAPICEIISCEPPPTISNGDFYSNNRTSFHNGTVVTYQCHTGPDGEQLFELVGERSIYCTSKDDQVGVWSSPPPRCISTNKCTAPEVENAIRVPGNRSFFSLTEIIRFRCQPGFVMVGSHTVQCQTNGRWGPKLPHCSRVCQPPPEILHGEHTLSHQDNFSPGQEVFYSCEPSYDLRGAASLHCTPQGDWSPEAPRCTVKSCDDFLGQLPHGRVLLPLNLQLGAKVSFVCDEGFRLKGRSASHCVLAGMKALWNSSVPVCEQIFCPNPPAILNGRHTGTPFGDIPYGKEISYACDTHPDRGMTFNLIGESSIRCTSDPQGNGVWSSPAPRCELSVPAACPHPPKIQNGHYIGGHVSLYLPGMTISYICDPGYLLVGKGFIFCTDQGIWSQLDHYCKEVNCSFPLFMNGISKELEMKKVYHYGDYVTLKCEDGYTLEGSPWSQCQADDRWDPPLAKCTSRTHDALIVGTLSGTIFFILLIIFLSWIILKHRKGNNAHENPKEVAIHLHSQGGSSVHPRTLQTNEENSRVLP
Sequence of C receptor type 2, the C3d receptor (human (endogenous in Raji)) (P20023 21-1033): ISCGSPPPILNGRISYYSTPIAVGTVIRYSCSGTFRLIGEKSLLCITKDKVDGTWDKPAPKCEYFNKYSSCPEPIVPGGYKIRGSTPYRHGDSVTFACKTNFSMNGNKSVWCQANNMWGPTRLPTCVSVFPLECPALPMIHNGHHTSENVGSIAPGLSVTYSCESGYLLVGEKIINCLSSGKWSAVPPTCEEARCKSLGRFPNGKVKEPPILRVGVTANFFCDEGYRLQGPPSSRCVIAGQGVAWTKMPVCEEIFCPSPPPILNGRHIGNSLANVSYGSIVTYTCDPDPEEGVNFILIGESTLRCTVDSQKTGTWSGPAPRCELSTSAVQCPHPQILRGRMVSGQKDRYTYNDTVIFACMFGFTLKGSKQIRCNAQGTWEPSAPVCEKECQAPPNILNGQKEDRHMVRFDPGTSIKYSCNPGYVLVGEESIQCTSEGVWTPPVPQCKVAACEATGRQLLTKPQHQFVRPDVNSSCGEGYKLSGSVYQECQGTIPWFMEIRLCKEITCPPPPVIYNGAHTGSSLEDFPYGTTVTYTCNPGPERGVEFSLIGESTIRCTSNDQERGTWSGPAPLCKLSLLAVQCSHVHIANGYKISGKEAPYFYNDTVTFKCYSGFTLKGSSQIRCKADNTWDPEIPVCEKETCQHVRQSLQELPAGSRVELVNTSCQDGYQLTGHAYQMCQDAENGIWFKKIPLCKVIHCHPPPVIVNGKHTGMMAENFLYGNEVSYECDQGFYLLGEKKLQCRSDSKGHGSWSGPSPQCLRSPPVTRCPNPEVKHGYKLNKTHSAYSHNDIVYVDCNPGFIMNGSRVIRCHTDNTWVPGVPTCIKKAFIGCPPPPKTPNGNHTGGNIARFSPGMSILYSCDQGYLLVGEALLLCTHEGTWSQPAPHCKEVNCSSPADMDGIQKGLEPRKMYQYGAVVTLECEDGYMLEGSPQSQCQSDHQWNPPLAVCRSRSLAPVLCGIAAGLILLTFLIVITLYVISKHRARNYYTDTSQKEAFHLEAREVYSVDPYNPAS
Sequence of C3c (P01024 23-1663): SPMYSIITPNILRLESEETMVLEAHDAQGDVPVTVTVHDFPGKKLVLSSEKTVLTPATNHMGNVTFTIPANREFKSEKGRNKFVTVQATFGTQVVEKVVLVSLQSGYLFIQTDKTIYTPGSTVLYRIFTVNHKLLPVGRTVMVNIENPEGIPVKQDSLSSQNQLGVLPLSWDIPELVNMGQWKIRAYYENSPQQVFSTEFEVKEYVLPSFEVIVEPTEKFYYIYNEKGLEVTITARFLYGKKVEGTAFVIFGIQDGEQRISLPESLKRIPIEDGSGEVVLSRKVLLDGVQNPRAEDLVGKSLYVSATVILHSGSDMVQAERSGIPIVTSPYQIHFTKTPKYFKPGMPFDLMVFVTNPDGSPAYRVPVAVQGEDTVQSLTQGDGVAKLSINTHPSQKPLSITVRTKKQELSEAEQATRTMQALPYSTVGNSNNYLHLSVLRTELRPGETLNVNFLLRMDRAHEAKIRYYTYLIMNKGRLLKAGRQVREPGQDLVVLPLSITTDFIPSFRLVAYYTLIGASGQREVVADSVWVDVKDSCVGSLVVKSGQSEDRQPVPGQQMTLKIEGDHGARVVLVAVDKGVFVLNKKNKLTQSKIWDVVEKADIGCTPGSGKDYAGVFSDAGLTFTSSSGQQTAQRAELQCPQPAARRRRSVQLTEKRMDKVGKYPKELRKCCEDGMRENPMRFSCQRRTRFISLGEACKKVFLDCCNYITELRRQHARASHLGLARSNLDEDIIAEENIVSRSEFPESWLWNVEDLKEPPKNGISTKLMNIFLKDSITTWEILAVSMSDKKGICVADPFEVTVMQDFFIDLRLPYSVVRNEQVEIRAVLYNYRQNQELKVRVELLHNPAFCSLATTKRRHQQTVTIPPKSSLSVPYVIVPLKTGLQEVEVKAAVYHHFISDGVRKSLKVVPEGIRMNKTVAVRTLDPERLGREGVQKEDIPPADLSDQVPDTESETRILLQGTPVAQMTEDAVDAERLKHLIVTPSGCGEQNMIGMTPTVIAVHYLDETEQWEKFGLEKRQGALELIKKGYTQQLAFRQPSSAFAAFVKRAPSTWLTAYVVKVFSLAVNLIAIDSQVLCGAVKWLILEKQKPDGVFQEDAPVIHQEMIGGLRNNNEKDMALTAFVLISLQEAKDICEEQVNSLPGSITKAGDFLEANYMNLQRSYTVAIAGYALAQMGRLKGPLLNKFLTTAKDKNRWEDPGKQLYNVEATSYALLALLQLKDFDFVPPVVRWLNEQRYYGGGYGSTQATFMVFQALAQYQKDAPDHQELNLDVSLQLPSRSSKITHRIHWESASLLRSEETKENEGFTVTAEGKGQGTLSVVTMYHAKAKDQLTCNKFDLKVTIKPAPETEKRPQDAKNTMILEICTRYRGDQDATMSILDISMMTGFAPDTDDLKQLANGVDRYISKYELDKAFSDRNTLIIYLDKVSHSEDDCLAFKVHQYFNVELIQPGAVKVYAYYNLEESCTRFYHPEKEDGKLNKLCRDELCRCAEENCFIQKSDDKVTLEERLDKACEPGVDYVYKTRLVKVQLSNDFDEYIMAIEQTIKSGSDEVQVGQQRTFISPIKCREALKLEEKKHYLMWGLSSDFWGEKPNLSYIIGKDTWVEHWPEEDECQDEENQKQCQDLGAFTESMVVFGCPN

A % rosette formation (C3c microspheres, erythrocytes, buffer) [1] of 72% and a % rosette formation (C3c microspheres, monocytes, buffer) [1] of 80% were found for “C3c (from UniProt P01024 23-667; P01024 749-954; P01024 1321-1663) (domain or fragment)” in this work.
A % rosette formation (C3d,g microspheres, Raji cells, buffer) [2] of 99% and a % rosette formation (Raji cells, 6.9 x 10^4 C3d,g per E, buffer) [2] of 99% were found for “C3d,g (from UniProt P01024 1002-1303) (domain or fragment)” in this work.
A % rosette formation (erythrocytes, 14 x 10^3 iC3b per E) [3] of 10%, a % rosette formation (erythrocytes, 37 x 10^3 iC3b per E) [3] of 22% and a % rosette formation (erythrocytes, 65 x 10^3 iC3b per E) [3] of 32% were found for “iC3b (inactivated C3b) (from UniProt P01024 23-667; P01024 749-1663; P01024 749-1663) (domain or fragment)” in this work. For the same substance, the % rosette formation (monocytes treated with anti-Mac-1, 14 x 10^3 iC3b per E) [3] was 13%, the % rosette formation (monocytes treated with anti-Mac-1, 65 x 10^3 iC3b per E) [3] was 81% and the % rosette formation (monocytes, 14 x 10^3 iC3b per E) [3] was 18%. The % rosette formation (monocytes, 65 x 10^3 iC3b per E) [3] was 85%, the % rosette formation (neutrophils treated with anti-Mac-1, 14 x 10^3 iC3b per E) [3] was 9% and the % rosette formation (neutrophils treated with anti-Mac-1, 65 x 10^3 iC3b per E) [3] was 86%. The % rosette formation (neutrophils, 14 x 10^3 iC3b per E) [3] was 11%, the % rosette formation (neutrophils, 37 x 10^3 iC3b per E) [3] was 84% and the % rosette formation (neutrophils, 65 x 10^3 iC3b per E) [3] was 88%. It also gave a % rosette formation (erythrocytes, 37 x 10^3 iC3b per E) [4] of 5%, a % rosette formation (erythrocytes, 65 x 10^3 iC3b per E) [4] of 8% and a % rosette formation (monocytes treated with anti-Mac-1, 14 x 10^3 iC3b per E) [4] of 6%. For the same substance, the % rosette formation (monocytes treated with anti-Mac-1, 65 x 10^3 iC3b per E) [4] was 74%, the % rosette formation (monocytes, 14 x 10^3 iC3b per E) [4] was 8% and the % rosette formation (monocytes, 65 x 10^3 iC3b per E) [4] was 77%. The % rosette formation (neutrophils treated with anti-Mac-1, 14 x 10^3 iC3b per E) [4] was 3%, the % rosette formation (neutrophils treated with anti-Mac-1, 65 x 10^3 iC3b per E) [4] was 93% and the % rosette formation (neutrophils, 14 x 10^3 iC3b per E) [4] was 2%. The % rosette formation (neutrophils, 37 x 10^3 iC3b per E) [4] was 78%, the % rosette formation (neutrophils, 65 x 10^3 iC3b per E) [4] was 97% and the % rosette formation (erythrocytes, 37 x 10^3 iC3b per E) [5] was 15%. It also gave a % rosette formation (erythrocytes, 65 x 10^3 iC3b per E) [5] of 22%, a % rosette formation (monocytes treated with anti-Mac-1, 14 x 10^3 iC3b per E) [5] of 5% and a % rosette formation (monocytes treated with anti-Mac-1, 65 x 10^3 iC3b per E) [5] of 75%. It also gave a % rosette formation (neutrophils treated with anti-Mac-1, 14 x 10^3 iC3b per E) [5] of 4%, a % rosette formation (neutrophils treated with anti-Mac-1, 65 x 10^3 iC3b per E) [5] of 95% and a % rosette formation (monocytes treated with anti-CR1, 14 x 10^3 iC3b per E) [6] of 74%. The % rosette formation (monocytes treated with anti-CR1, 65 x 10^3 iC3b per E) [6] was 85%, the % rosette formation (monocytes, 7.9 x 10^3 iC3b per E) [6] was 59% and the % rosette formation (neutrophils treated with anti-CR1, 14 x 10^3 iC3b per E) [6] was 79%. The % rosette formation (neutrophils treated with anti-CR1, 65 x 10^3 iC3b per E) [6] was 92%, the % rosette formation (erythrocytes, 14 x 10^3 iC3b per E) [1] was 21% and the % rosette formation (erythrocytes, 37 x 10^3 iC3b per E) [1] was 39%. For the same substance, the % rosette formation (erythrocytes, 65 x 10^3 iC3b per E) [1] was 60%, the % rosette formation (iC3b microspheres, erythrocytes, buffer) [1] was 75% and the % rosette formation (iC3b microspheres, monocytes, buffer) [1] was 96%. It also gave a % rosette formation (monocytes treated with anti-Mac-1, 14 x 10^3 iC3b per E) [1] of 20%, a % rosette formation (monocytes treated with anti-Mac-1, 65 x 10^3 iC3b per E) [1] of 92% and a % rosette formation (neutrophils treated with anti-Mac-1, 14 x 10^3 iC3b per E) [1] of 13%. The % rosette formation (neutrophils treated with anti-Mac-1, 65 x 10^3 iC3b per E) [1] was 100%, the % rosette formation (iC3b microspheres, Raji cells, buffer) [2] was 98% and the % rosette formation (anti-CR1-treated monocytes, 1.4 x 10^4 iC3b per E, BDVA) [7] was 84%. The % rosette formation (anti-CR1-treated monocytes, 7.9 x 10^3 iC3b per E, BDVA) [7] was 44%, the % rosette formation (monocytes treated with anti-CR1, 14 x 10^3 iC3b per E) [7] was 95% and the % rosette formation (monocytes treated with anti-CR1, 65 x 10^3 iC3b per E) [7] was 94%. For the same substance, the % rosette formation (monocytes, 7.9 x 10^3 iC3b per E) [7] was 86%, the % rosette formation (neutrophils treated with anti-CR1, 14 x 10^3 iC3b per E) [7] was 100% and the % rosette formation (neutrophils treated with anti-CR1, 65 x 10^3 iC3b per E) [7] was 100%.
